Numbering of substitutions follows the chain as printed.

First the molecules themselves.
T1: MMP-26 catalytic domain, tagged with hexa-histidine (human, UniProt Q9NRE1 90-261)
T1 construct: the forward primer adds Met-Ala before it; also called MMP-26 target protein; Matrilysin-2; not shown: Also any N-terminal residues added by the forward primer (Met-Ala according to our card; the primers were not visible to me)
T1 sequence: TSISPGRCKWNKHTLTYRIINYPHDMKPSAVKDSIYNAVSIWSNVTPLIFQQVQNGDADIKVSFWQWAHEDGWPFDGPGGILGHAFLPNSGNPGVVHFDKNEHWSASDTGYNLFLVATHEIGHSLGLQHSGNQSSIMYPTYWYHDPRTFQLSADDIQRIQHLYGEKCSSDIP

B1: A11 (antibody, human IgG4, V domains shown)
VH: EVQLLESGGGLVQPGGSLRLSCAASGFTFSWYTMMWVRQAPGKGLEWVSRISPSGGHTLYADSVKGRFTISRDNSZNTLYLQMNSLRAEDTAVYYCARDTWDDYYDSSGYYNDFDYWGQGTLVTVSS
VL: QSALTQPPSVSLAPGQTARITCGGNNIGTKSVHWYQQKPGQAPVLVVYDDSDRPSGIPERFSGSNSGNTATLTISRVEAGDEADYYCQVWDSGSDHQVFGGGTKLTVLG
notes: whole human IgG4; the VHC entry has one unread residue (printed z, K75z)
B2: B07 (antibody, human IgG4, V domains shown)
VH: EVQLLESGGGLVQPGGSLRLSCAASGFTFSQYQMIWVRQAPGKGLEWVSVIVPSGGITNYADSVKGRFTISRDNSKNTLYLQMNSLRAEDTAVYYCARGGVEAVDSSSPDYWGQGTLVTVSS
VL: DIQMTQSPATLSLSPGERATLSCRASQSVSSYLAWYQQKPGQAPRLLIYDASNRATGIPARFSGSGSGTDFTLTISSLEPEDFAVYYCQQRSNWPRTFGGGTKVEIKR
notes: whole human IgG4
B3: A1-orig (antibody, human IgG4, V domains shown)
VH: EVQLLESGGGLVQPGGSLRLSCAASGFTFSYYRMSWVRQAPGKGLEWVSSIGPSGGDTLYADSVKGRFTISRDNSKNTLYLQMNSLRAEDTAVYYCARSFSSGPYYFDYWGQGTLVTVSS
VL: QSVLTQPPSASGTPGQRVIISCSGSSSNIGSHYVHWYQQVPGTAPKLLIYRNGQRPSGVPDRFSGFKSGTSASLAISGLRSEDEANYYCATWDDSVLFGGGTTLTVLG
notes: whole human IgG4
B4: D6-orig (antibody, human IgG4, V domains shown)
VH: EVQLLESGGGLVQPGGSLRLSCAASGFTFSMYSMRWVRQAPGKGLEWVSSIYPSGGSTEYADSVKGRFTISRDNSKNTLYLQMNSLRAEDTAVYYCAREGGENDYWGQGTLVTVSS
VL: DIQMTQSPLSLSASVGDRVAITCRASQSIDTYLNWYQQKPGKAPKLLIYAASKLEDGVPSRFSGSGTGTDFTLTIRSLQPEDFASYFCQQSYSSPGITFGPGTKVEIKR
notes: whole human IgG4
B5: B02 (antibody, human IgG4, V domains shown)
VH: EVQLLESGGGLVQPGGSLRLSCAASGFTFSDYFMKWVRQAPGKGLEWVSSIYPSGGPTKYADSVKGRFTISRDNSKNTLYLQMNSLRAEDTAVYYCARERSSGWYGYYYYGMDVWGQGTTVTVSS
VL: B4 VL with L9S
notes: whole human IgG4
B6: A10 (antibody, human IgG4, V domains shown)
VH: EVQLLESGGGLVQPGGSLRLSCAASGFTFSAYRMFWVRQAPGKGLEWVSSIWPSGGTTSYADSVKGRFTISRDNSKNTLYLQMNSLRAEDTAVYYCARDRGYDSSGYFDYWGQGTLVTVSS
VL: QSELTQPPSASGTPGQRVTISCSGGSSNIGSNYVSWYQQLPGTAPKLLIYNNNQRPSGVPDRFSGSKSGTSASLAISGLRSEDEADYYCAAWDDSLSSAVFGGGTQLTVLG
notes: whole human IgG4
B7: A12 (antibody, human IgG4, V domains shown)
VH: EVQLLESGGGLVQPGGSLRLSCAASGFTFSAYWMDWVRQAPGKGLEWVSVIYPSGGSTNYADSVKGRFTISRDNSKNTLYLQMNSLRAEDTAVYYCAREGIAAAAPMDVWGKGTTVTVSS
VL: DIQMTQSPGTLSLSPGERATLSCRASQSVSRSYLGWYQQKPGQAPRLLIYGASNRATGIPDRFSGSGSGTDFTLTISRLEPEDFAVYYCQQYGISPLTFGPGTKVDIKR
notes: whole human IgG4
B8: B01 (antibody, human IgG4, V domains shown)
VH: EVQLLESGGGLVQPGGSLRLSCAASGFTFSTYDMLWVRQAPGKGLEWVSSISPSGGSTSYADSVKGRFTISRDNSKNTLYLQLNSLRAEDTAVYYCAREKASDLSGTYSEALDHWGQGTLVTVSS
VL: DIQMTQSPGTLSLSPGERATLSCRASQSVSSSYFAWYQQKPGQAPRLLIYDASSRATGIPDRFSGSGSGTDFTLTISRLEPEDFAVYYCQQYGSSPPMYTFGQGTKLEIKR
notes: whole human IgG4
B9: B04 (antibody, human IgG4, V domains shown)
VH: EVQLLESGGGLVQPGGSLRLSCAASGFTFSFYWMMWVRQAPGKGLEWVSGISSSGGFTKYADSVKGRFTISRDNSKNTLYLQMNSLRAEDTAVYYCARETSRRAFDIWGQGTMVTVSS
VL: DIQMTQSPSSVSASVGDRVTITCRASQGISKSLAWYQQKPGKAPKLLVYGAFSLESGVPSRFSGTGAGTDFILTISRLQPEDFATYYCQQANSFPLTFGGGTKVEIKR
notes: whole human IgG4
B10: B08 (antibody, human IgG4, V domains shown)
VH: EVQLLESGGGLVQPGGSLRLSCAASGFTFSRYMMNWVRQAPGKGLEWVSVIWSSGGKTLYADSVKGRFTISRDNSKNTLYLQMKSLRAEDTAVYYCARGGYNNYYYSMDVWGQGTTVTVSS
VL: QSELTQPHSVSGSPGKTVTISCTRSSGSIAGNYVQWYQQRPGSSPTTVIYEDNKRPSGVPDRFSGSIDSSSNSASLIISGLKTEDEADYYCHSYDTSNQVFGGGTKLTVLG
notes: whole human IgG4
B11: H6-orig (antibody, human IgG4, V domains shown)
VH: EVQLLESGGGLVQPGGSLRLSCAASGFTFSQYWMNWVRQAPGKGLEWVSGIGPSGGITYYADSVKGRFTISRDNSKNTLYLQMNSLRAEDTAVYYCARGEEDGYNSDYWGQGTLVTVSS
VL: QSELTQPPSASGSPGQSVTISCTGTSSDVGAYNYVSWYQQHPGKAPKLIIYEVNKRPSGVPDRFSASKSGNTASLTVSGLQAEDEADYYCNSYAGSNSLIFGGGTKLTVLG
notes: whole human IgG4
B12: B06 (antibody, human IgG4, V domains shown)
VH: EVQLLESGGGLVQPGGSLRLSCAASGFTFSQYFMKWVRQAPGKGLEWVSSISPSGGLTQYADSVKGRFTISRDNSKNTLYLQMNSLRAEDTAVYYCARGGIEAPGSPSDYWGQGTLVTVSS
VL: DIQMTQSPSFLSASVGDRVTITCRASQGISSYLAWYQQKPGKAPKLLIYAASTLQSGVPSRFSGSGSGTDFTLTISSLEPEDFATYYCQESYSTPFFTFGPGTKVDIRR
notes: whole human IgG4
B13: A01 (antibody, human IgG4, V domains shown)
VH: EVQLLESGGGLVQPGGSLRLSCAASGFTFSAYNMFWVRQAPGKGLEWVSGIGSSGGIAPYADSVKGRFTISRDNSKNTLYLQMNSLRAEDTAVYYCARAAYEVENWFDPWGQGTLVTVSS
VL: DIQMTQSPGTLSLSPGERATLSCRASQIVRSTYLAWYQQKPGQAPRLLIYGTSSRATGVPDRFSGSGSGTDFTLTISGLEPEDFALYYCQRYGDSPPITFGQGTRLEITR
notes: whole human IgG4
B14: B10 (antibody, human IgG4, V domains shown)
VH: EVQLLESGGGLVQPGGSLRLSCAASGFTFSSYAMMWVRQAPGKGLEWVSWIVPSGGTTFYADSVKGRFTISRDNSKNTLYLQMNSLRAEDTAVYYCARGLYRWGQGTLVTVSSASTKGPSVFP
VL: DIQMTQSPSSLSASVGDRVTIACRTSQNVNRYLNWYQHKLGQAPKLLIYGATILQSGVPSRFRGSGSGTDFILTITNLQPEDFAVYYCQQTYSPPLTFGQGTKAEFKGTVAAPSV
notes: whole human IgG4
B15: C12 (antibody, V domains shown)
VH: EVQLLESGGGLVQPGGSLRLSCAASGFTFSAYNMMWVRQAPGKGLEWVSRIYPSGGYTLYADSVKGRFTISRDNSKNTLYLQMNSLRAEDTAVYYCARQKLMIRAVRPFDYWGQGTLVTVSS
VL: QSELTQPPSVSVSPAQTASITCSGDKLGDKYACWYQQKPGQSPVLVIYEDTKRPSGIPERFSGSNSGNTATLTISGTQVMDEADYYCQVWDSSTAVFGGGTKLTVLG
notes: whole human IgG4

For the first experiment, the target named is T2, MMP-3 (UniProt P08254 100-477, limits assumed).
T2 construct: also called stromelysin-1
T2 sequence (P08254 100-477 limits assumed): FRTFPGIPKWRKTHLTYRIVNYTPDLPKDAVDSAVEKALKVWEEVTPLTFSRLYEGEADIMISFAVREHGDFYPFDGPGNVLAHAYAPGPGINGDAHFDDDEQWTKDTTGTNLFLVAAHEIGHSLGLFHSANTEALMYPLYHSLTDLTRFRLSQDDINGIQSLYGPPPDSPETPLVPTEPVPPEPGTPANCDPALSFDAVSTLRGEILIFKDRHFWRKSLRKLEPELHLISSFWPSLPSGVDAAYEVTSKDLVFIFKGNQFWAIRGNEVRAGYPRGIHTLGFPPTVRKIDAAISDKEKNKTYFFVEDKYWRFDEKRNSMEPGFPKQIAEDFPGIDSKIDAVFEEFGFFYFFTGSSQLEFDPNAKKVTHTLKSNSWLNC
The experiment can be described thus: cross-reactivity ELISA on coated MMP. Here is the method:
(§1) Twenty-one of the reformatted MMP-26 antibodies were tested for MMP cross reactivity by ELISA analysis. MMP-3, MMP-7, MMP-9, and MMP-12 were coated onto Immulon 2 HB 96-well plates at a concentration of 1 μg/ml for 1 hour at 37° C. The plates were blocked with PBS-T containing 5% (w/v) nonfat dry milk for thirty minutes and subsequently washed with PBS-T. Each antibody was tested for reactivity to all of the above mentioned MMPs at a concentration of 2 μg/ml with an incubation time of 1 hour. Bound antibody was detected with an HRP-conjugated anti-human secondary antibody (Table 3, NT=not tested.).
For B1, the binding result was “no binding (tested: 2 µg/ml)”.

Turning to B2, the binding result is given as “no binding (tested: 2 µg/ml)”.

Take B3: the binding result is on record as “no binding (tested: 2 µg/ml)”.

On to B4, for which the binding result is “no binding (tested: 2 µg/ml)”.

In the case of B5, the binding result is “no binding (tested: 2 µg/ml)”.

For B6, the binding result is recorded as “no binding (tested: 2 µg/ml)”.

For B7, the binding result is reported as “no binding (tested: 2 µg/ml)”.

As to B8, the binding result is on record as “no binding (tested: 2 µg/ml)”.

Consider B9, for which the binding result is “no binding (tested: 2 µg/ml)”.

As to B10, the binding result is listed as “no binding (tested: 2 µg/ml)”.

B11: the binding result is “no binding (tested: 2 µg/ml)”.

Turning to B12, the binding result is on record as “no binding (tested: 2 µg/ml)”.

Regarding B13, the binding result is reported as “no binding (tested: 2 µg/ml)”.

For the next experiment, the target named is T3, MMP-9 (UniProt P14780 107-707, limits assumed).
T3 construct: also called gelatinase
T3 sequence (P14780 107-707 limits assumed): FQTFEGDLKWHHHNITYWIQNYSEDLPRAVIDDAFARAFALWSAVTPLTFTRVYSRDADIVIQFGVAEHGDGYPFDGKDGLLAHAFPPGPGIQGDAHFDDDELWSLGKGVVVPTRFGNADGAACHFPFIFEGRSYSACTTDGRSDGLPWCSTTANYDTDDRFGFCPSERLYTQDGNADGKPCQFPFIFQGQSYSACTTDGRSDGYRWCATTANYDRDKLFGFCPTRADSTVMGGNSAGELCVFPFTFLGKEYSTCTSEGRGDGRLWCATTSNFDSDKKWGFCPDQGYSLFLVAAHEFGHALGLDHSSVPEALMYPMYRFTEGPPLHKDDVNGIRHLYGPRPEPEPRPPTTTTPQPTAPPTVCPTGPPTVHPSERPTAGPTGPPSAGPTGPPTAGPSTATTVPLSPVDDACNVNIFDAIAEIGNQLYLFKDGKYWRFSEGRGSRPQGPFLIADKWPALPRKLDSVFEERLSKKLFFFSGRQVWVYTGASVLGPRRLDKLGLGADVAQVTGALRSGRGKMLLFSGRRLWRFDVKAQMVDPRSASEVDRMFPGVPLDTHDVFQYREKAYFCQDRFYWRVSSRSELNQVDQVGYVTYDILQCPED
The experiment can be described thus: cross-reactivity ELISA on coated MMP. Here is the method: as §1
In the case of B1, the binding result was “no binding (tested: 2 µg/ml)”.

Turning to B2, the binding result is “no binding (tested: 2 µg/ml)”.

B5: the binding result is “no binding (tested: 2 µg/ml)”.

In the case of B6, the binding result is “no binding (tested: 2 µg/ml)”.

On to B14, for which the binding result was “no binding (tested: 2 µg/ml)”.

For the molecule B7, the binding result is listed as “no binding (tested: 2 µg/ml)”.

Regarding B8, the binding result is listed as “no binding (tested: 2 µg/ml)”.

In the case of B15, the binding result is reported as “no binding (tested: 2 µg/ml)”.

In the case of B9, the binding result was “no binding (tested: 2 µg/ml)”.

As to B10, the binding result is given as “no binding (tested: 2 µg/ml)”.

For B11, the binding result is listed as “no binding (tested: 2 µg/ml)”.

Turning to B12, the binding result is reported as “no binding (tested: 2 µg/ml)”.

With B13, the binding result is recorded as “no binding (tested: 2 µg/ml)”.

The target of a further experiment is T1, MMP-26 catalytic domain, tagged with …. The experiment can be described thus: bead-based ELISA, MMP-26 on nickel beads, IgG4 culture supernatant. Here is the method:
Reformatted and expressed full-length MMP-26 binding IgG4 antibodies were tested for specificity in a bead-based ELISA. Approximately 1.25 μg of MMP-26 protein was bound to nickel-coated magnetic beads (Novagen) which had been pre-blocked with phosphate buffered saline containing 5% (w/v) nonfat dry milk and 0.05% (v/v) Tween-20. The beads were washed in phosphate buffered saline containing 0.05% (v/v) Tween-20 (PBS-T) and 100 uls of unpurified cell culture supernatant containing transiently produced MMP-26-binding antibodies was added and incubated on a rotator for sixty minutes. The beads were washed with PBS-T and MMP-26-binding antibodies were detected with an HRP-conjugated anti-human secondary antibody. Data is expressed in fold over background where background consists of beads, blocking agent, and culture supernatant containing target antibody (Table 2; in this table, Results shown as fold over background (F>B) where background consists of beads, blocking agent, and culture supernatant).
As for B1, the “F > B (fold over background)” value came out at 1.7 fold over background.

B6: the “F > B (fold over background)” value was determined as 1.84 fold over background.

In the case of B14, the “F > B (fold over background)” value came out at 2.7 fold over background.

On to B7, for which the “F > B (fold over background)” value turned out to be 1.8 fold over background.

As for B8, the “F > B (fold over background)” value was 2.3 fold over background.

Regarding B15, the “F > B (fold over background)” value was 1.8 fold over background.

Regarding B10, the “F > B (fold over background)” value amounted to 3 fold over background.

As for B12, the “F > B (fold over background)” value turned out to be 2.1 fold over background.

For B13, the “F > B (fold over background)” value was determined as 3.3 fold over background.

These data come from US7514534 (DYAX, dated 2009).
